# Source: patent publication US20230183289A1 (ANPEP, published 2023)
# Target: elastase (type I: derived from porcine pancreas, Sigma Aldrich) (porcine, UniProt P00772 27-266)
# Assay: cell-based or functional assay
# elastase (type I: derived from porcine pancreas, Sigma Aldrich), sequence (P00772 27-266 limits assumed): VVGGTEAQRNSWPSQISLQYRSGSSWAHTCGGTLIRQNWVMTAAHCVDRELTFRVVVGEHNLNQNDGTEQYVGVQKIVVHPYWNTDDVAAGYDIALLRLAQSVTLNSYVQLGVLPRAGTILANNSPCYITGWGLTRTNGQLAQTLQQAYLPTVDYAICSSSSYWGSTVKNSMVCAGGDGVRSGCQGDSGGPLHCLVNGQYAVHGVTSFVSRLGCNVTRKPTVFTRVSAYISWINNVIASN
row,Binder,Elastase Inhibition Rate (%)
1,MSYQ [Sample 1 tetrapeptide MSYQ],79.4
2,GQVS [Sample 10 tetrapeptide GQVS],33.9
3,GYVS [Sample 11 tetrapeptide GYVS],78.5
4,SQQV [Sample 12 tetrapeptide SQQV],49.3
5,TQTS [Sample 13 tetrapeptide TQTS],59
6,CAPQ [Sample 14 tetrapeptide CAPQ],77.2
7,QPSY [Sample 15 tetrapeptide QPSY],63.5
8,YGGG [Sample 16 tetrapeptide YGGG],67.1
9,SSGG [Sample 17 tetrapeptide SSGG],77
10,GGSG [Sample 18 tetrapeptide GGSG],104
11,GSSG [Sample 19 tetrapeptide GSSG],58.3
12,QKKQ [Sample 2 tetrapeptide QKKQ],88.7
13,GCFS [Sample 20 tetrapeptide GCFS],55.2
14,CFSS [Sample 21 tetrapeptide CFSS],47.4
15,FSSG [Sample 22 tetrapeptide FSSG],69.1
16,GQLE [Sample 23 tetrapeptide GQLE],73.2
17,ELPE [Sample 24 tetrapeptide ELPE],90.5
18,LELP [Sample 26 tetrapeptide LELP],78.2
19,GQLK [Sample 27 tetrapeptide GQLK],56
20,KHLE [Sample 28 tetrapeptide KHLE],79.3

row,Binder,Elastase Inhibition Rate (%)
1,EHQE [Sample 29 tetrapeptide EHQE],66.3
2,PTPQ [Sample 3 tetrapeptide PTPQ],69.3
3,EGQL [Sample 30 tetrapeptide EGQL],69.7
4,LEVP [Sample 31 tetrapeptide LEVP],70.6
5,PEEQ [Sample 32 tetrapeptide PEEQ],64
6,QMGQ [Sample 33 tetrapeptide QMGQ],55.6
7,GQDP [Sample 34 tetrapeptide GQDP],34.5
8,QLKY [Sample 35 tetrapeptide QLKY],60.5
9,YLEQ [Sample 36 tetrapeptide YLEQ],72.3
10,TKGE [Sample 38 tetrapeptide TKGE],59.3
11,VLLP [Sample 39 tetrapeptide VLLP],60.7
12,PPVD [Sample 4 tetrapeptide PPVD],72.5
13,VEHQ [Sample 40 tetrapeptide VEHQ],55.7
14,QQKQ [Sample 41 tetrapeptide QQKQ],72.3
15,EVQW [Sample 42 tetrapeptide EVQW],49.5
16,DCVK [Sample 5 tetrapeptide DCVK],118
17,VKTS [Sample 6 tetrapeptide VKTS],66.3
18,KTSG [Sample 7 tetrapeptide KTSG],44.5
19,SGGS [Sample 8 tetrapeptide SGGS],49.6
20,GSGY [Sample 9 tetrapeptide GSGY],56.3
